# Data: patent US20220396617A1
# B1: Etigilimab (antibody, INN chains, looked up, human IgG1, V domains shown)
# VH: QVQLQESGPGLVKPSETLSLTCAVSGYSITSDYAWNWIRQPPGKGLEWIGYISYSGSTSYNPSLRSRVTISRDTSKNQFFLKLSSVTAADTAVYYCARRQVGLGFAYWGQGTLVTVSS
# VL: DIQMTQSPSSLSASVGDRVTITCKASQDVSTAVAWYQQKPGKAPKLLIYSASYRYTGVPSRFSGSGSGTDFTFTISSLQPEDIATYYCQQHYSTPWTFGQGTKVEIK
# Biological target: human TIGIT expressed on HEK293A cells (human) (UniProt Q495A1)
# Assay: cell-based or functional assay
# Chain of human TIGIT expressed on HEK293A cells (human) (Q495A1 22-244 limits assumed): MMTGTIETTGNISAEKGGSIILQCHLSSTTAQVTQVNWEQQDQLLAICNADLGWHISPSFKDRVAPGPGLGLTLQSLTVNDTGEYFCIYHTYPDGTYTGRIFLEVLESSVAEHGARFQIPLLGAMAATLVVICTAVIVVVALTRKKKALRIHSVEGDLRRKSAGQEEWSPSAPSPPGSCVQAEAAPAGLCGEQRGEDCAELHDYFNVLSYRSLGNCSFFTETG
binder,measurement,value
B1,"NK92-mediated ADCC against HEK293A/human TIGIT cells, EC50",0.0236 nM
